The source of these data is article PMC6174099.

The term stoichiometry N denotes the number of molecules, sites or subunits per partner or assembly.

The test has as its target T1, Heat shock factor 1 (HSF1), wild-type, monomer (human), Q00613.
T1 chain: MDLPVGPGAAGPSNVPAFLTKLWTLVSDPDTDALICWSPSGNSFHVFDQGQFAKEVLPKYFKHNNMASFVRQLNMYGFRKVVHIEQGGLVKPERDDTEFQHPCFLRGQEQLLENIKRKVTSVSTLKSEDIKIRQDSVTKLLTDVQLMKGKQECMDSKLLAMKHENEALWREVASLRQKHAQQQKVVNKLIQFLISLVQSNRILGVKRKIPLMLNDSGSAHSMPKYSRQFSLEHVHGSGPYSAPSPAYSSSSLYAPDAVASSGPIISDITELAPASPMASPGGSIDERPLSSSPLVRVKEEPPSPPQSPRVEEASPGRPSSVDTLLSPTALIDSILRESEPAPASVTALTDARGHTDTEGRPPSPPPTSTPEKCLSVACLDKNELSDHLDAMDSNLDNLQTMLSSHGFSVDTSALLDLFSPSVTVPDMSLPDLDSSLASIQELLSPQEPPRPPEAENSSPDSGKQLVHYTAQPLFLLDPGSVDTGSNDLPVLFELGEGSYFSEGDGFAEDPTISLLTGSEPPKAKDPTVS
As to the kind of experiment: SEC. To be noted: remark: other sources report otherwise.

B1: Heat shock factor 1 (HSF1), wild-type, monomer, Q00613 1-529 (natural protein)
chain: MDLPVGPGAAGPSNVPAFLTKLWTLVSDPDTDALICWSPSGNSFHVFDQGQFAKEVLPKYFKHNNMASFVRQLNMYGFRKVVHIEQGGLVKPERDDTEFQHPCFLRGQEQLLENIKRKVTSVSTLKSEDIKIRQDSVTKLLTDVQLMKGKQECMDSKLLAMKHENEALWREVASLRQKHAQQQKVVNKLIQFLISLVQSNRILGVKRKIPLMLNDSGSAHSMPKYSRQFSLEHVHGSGPYSAPSPAYSSSSLYAPDAVASSGPIISDITELAPASPMASPGGSIDERPLSSSPLVRVKEEPPSPPQSPRVEEASPGRPSSVDTLLSPTALIDSILRESEPAPASVTALTDARGHTDTEGRPPSPPPTSTPEKCLSVACLDKNELSDHLDAMDSNLDNLQTMLSSHGFSVDTSALLDLFSPSVTVPDMSLPDLDSSLASIQELLSPQEPPRPPEAENSSPDSGKQLVHYTAQPLFLLDPGSVDTGSNDLPVLFELGEGSYFSEGDGFAEDPTISLLTGSEPPKAKDPTVS
The molecule B1 returned a stoichiometry N of 3.
